Numbering of substitutions follows the chain as printed.

Consider two molecules from patent US20240400657A1 (MorphoSys, published 2024).

In assay [1] the target is T1, cynomolgus C5aR_NT-bio peptide (cynomolgus monkey, biotin tag (position not given)).
T1 construct: Chemically synthesized linear peptide (Genscript); also called cynomolgus C5aR N-terminal peptide; cynomolgus C5aR peptide
T1 peptide: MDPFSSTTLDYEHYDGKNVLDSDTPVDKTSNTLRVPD
Nature of the assay: BLI (Octet), apparent (bivalent).

Another assay concerns the target T2, Protein A.
T2 construct: control of the 3P panel
Nature of the assay: Protein Panel Profiling (3P), MSD ECL, coated antigen, IgG 100 nM.

In the next assay the target is T3, Fc (h).
T3 construct: '(h)' on the sheet read as human
Described as above.

The next assay deals with Pepsinogen. Described as above.
In a further assay the target is Amyloglycosidase. The description is as above.
The next assay deals with Trypsin inhibitor. Described as above.
In another assay the target is Cytochrome C. The description is as above.
For the next assay, the target named is Myoglobin. The assay is described as above.
Another assay addresses Ovalbumin. Described as above.
The next assay addresses Trypsinogen. The assay is described as above.
A further assay addresses RNase B. The assay is described as above.
Another assay addresses T4, Serum albumin (h) (human).
T4 construct: '(h)' on the sheet read as human
The assay is described as above.

In another assay the target is RNase A. Described as above.
Sequence of RNase A (P61823 27-150): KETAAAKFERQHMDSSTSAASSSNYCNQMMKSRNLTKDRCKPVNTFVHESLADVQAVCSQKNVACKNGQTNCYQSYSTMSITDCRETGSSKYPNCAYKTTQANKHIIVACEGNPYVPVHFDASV
The target in another assay is T5, anti-human Fab (Dianova).
T5 construct: control of the 3P panel; it captures human IgG as such, so a ratio of 1 means a signal equal to that of MOR03207
The assay is described as above.

A further assay addresses T6, anti-human Fc.
T6 construct: control of the 3P panel; it captures human IgG as such, so a ratio of 1 means a signal equal to that of MOR03207
The assay is described as above.

A further assay deals with Fibrinogen (b) (bovine). The description is as above.
Sequence of Fibrinogen (b) (bovine) (P02672 20-615, chain 1 of 3): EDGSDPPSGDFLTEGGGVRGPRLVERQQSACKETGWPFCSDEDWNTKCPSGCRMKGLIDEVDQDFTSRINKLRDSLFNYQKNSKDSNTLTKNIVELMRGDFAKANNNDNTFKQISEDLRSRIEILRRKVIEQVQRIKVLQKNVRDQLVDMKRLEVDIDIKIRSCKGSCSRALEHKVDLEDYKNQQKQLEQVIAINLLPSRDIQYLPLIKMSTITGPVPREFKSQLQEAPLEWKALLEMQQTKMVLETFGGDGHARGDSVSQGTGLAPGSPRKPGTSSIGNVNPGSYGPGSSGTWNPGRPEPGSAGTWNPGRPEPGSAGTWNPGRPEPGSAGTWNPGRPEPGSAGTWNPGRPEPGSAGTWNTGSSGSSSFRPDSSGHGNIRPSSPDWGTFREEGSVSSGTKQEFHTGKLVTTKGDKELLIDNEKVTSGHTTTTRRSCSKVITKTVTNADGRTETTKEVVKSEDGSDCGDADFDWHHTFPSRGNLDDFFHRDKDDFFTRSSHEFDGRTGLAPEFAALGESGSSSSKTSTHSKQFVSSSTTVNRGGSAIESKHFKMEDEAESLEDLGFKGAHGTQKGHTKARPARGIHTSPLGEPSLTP
Sequence of Fibrinogen (b) (bovine) (P02676 whole entry, chain 2 of 3, further chain): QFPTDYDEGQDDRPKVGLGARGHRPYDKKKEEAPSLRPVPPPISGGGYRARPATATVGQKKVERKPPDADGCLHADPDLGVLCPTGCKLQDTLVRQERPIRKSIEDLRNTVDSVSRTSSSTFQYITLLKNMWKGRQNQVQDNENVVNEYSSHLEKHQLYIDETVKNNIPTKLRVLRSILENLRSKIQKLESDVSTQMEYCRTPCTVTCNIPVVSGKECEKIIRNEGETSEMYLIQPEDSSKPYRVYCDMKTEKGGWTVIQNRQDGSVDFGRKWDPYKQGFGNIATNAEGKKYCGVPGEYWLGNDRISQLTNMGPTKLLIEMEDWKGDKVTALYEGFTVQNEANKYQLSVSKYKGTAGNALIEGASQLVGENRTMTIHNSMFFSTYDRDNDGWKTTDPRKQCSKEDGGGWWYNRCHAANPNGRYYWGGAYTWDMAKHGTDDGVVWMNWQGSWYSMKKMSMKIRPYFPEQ
Sequence of Fibrinogen (b) (bovine) (P12799 25-444, chain 3 of 3, further chain): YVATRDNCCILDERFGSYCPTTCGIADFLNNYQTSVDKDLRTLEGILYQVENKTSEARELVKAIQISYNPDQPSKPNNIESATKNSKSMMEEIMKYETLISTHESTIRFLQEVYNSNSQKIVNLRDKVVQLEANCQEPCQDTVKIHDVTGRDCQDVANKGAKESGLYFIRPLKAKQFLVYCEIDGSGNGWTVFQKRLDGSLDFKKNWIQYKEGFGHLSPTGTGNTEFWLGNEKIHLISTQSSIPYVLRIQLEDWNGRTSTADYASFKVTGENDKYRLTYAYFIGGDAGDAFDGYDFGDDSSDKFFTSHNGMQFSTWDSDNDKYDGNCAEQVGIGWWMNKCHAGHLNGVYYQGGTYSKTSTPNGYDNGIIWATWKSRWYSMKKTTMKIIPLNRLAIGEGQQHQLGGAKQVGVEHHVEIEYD
A further assay addresses Antitrypsin. Described as above.
The target of assay [2] is T7, Cell surface rec. 1_Lys (h).
T7 construct: identity not disclosed
The assay is described as above.
Method: (§1) 32 different proteins and controls were coated on two 384-well MSD standard plates at a concentration of 1.0 μg/mL at 4° C. over night. The coating solution was discarded and plates were blocked with 50 μL 3% (w/v) BSA in PBS for one hour at RT on a microtiter plate shaker (˜500 rpm) followed by three washing steps with 50 μL washing buffer (PBS with 0.05% (v/v) Tween 20). IgG samples were diluted to 100 nM and 10 nM in assay buffer (PBS with 0.5% (w/v) BSA, 0.05% (v/v) Tween 20). As controls, isotype control antibody MOR03207 (IgG1f_AEASS) and assay buffer were used. Samples and controls were added at 30 μL/well and incubated for three hours at RT on a microtiter plate shaker. The plates were washed three times and 30 μL detection antibody (ECL-labeled anti-human Fab) were added per well and incubated for one hour on a microtiter plate shaker (˜500 rpm). After washing the MSD plate and adding 35 μL/well MSD Read Buffer T with surfactant, electro-chemiluminescence signals were detected using a SECTOR® Imager S600 instrument (Meso Scale Diagnostics).
(§2) For evaluation, binding signals of the antibody sample to a certain protein were divided by the respective binding signals of the reference antibody MOR03207 resulting in a binding ratio (BR). The cumulative binding ratio (CBR) of all proteins except the controls (25 in total) was then calculated: CBR up to 150 indicates an IgG without detectable unspecific binding. Values above 150 indicates an IgG with increased unspecific binding compared to the reference antibody MOR03207.

The target in assay [3] is T8, Cell surface rec. 3_Fc (h).
T8 construct: identity not disclosed
The description is as above.
Method: as §1, §2

The target of another assay is GFP. The description is as above.
The next assay concerns the target bovine transferrin (bovine, UniProt Q29443 20-704). The assay is described as above.
Assay [4] addresses T9, Mouse FcRn p51 [1-297]/AviHis/p14 biotinylated (mouse, UniProt Q61559 22-298; P01887 21-119, biotinylated in vitro with BirA (Avi tag)).
T9 construct: Heterodimer; UniProt Q61559 (p51); also called Murine FcRn
T9 chain 1: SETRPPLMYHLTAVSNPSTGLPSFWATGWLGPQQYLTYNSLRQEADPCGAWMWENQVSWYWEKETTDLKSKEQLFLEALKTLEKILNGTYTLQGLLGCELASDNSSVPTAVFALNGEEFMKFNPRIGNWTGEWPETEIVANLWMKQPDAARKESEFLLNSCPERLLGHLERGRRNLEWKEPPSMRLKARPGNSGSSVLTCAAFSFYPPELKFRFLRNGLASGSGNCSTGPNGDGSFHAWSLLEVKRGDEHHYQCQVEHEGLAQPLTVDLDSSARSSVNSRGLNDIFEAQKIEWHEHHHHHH
T9 chain 2: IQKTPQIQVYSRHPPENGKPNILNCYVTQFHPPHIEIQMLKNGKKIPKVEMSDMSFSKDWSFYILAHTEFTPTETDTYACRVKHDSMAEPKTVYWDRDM
Kind of assay: BLI (Octet HTX), biotinylated FcRn on SA sensors, IgG titrated, steady state fit, apparent KD, pH 7.2. A general note: Biolayer interferometry detects binding as a change in optical thickness at a sensor tip.
From the text: (§3) 0.5 nm of biotinylated human, cynomolgus, mouse and rat FcRn were captured on streptavidin (SA) sensors (FortéBIO, Pall Life Sciences). […] All sensorgrams were fitted using Data Analysis Software 10.0 (FortéBIO, Pall Life Sciences) to determine the apparent affinity and the data was fitted with a steady state model.

Assay [5] addresses T10, Rat FcRn p51 [1-298]/AviHis/p14 biotinylated (rat, UniProt P13599 23-299; P07151 21-119, biotinylated in vitro with BirA (Avi tag)).
T10 construct: Heterodimer; UniProt P13599 (p51)
T10 sequence 1: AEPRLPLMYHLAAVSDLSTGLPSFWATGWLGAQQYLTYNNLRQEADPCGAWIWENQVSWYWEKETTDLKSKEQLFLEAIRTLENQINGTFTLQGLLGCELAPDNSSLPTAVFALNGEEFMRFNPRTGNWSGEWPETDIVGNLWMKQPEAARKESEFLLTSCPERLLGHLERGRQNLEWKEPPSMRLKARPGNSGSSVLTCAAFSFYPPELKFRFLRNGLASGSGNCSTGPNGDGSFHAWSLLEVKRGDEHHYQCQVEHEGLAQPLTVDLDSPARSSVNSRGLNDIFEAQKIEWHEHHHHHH
T10 sequence 2: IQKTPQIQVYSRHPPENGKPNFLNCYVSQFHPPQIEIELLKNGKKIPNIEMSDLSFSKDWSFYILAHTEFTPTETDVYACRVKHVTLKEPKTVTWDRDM
Described as above.
From the text: as §3

T4 sequence (P02768 25-609): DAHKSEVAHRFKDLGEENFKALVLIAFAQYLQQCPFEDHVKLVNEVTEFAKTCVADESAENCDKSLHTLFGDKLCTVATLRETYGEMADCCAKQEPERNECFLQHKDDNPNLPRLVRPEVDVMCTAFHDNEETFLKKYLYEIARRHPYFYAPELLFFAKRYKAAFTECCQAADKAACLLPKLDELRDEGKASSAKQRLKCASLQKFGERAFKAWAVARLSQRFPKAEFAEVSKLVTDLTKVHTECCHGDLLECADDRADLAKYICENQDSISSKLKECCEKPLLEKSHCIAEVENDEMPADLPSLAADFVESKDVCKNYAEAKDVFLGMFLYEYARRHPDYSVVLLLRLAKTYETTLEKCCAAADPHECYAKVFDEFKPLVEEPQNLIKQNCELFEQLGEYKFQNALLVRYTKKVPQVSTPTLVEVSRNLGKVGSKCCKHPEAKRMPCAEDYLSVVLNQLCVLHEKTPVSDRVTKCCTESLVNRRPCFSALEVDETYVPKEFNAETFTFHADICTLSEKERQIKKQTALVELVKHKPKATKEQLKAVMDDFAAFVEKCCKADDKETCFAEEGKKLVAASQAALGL
Sequence of Ovalbumin (P01012 2-386): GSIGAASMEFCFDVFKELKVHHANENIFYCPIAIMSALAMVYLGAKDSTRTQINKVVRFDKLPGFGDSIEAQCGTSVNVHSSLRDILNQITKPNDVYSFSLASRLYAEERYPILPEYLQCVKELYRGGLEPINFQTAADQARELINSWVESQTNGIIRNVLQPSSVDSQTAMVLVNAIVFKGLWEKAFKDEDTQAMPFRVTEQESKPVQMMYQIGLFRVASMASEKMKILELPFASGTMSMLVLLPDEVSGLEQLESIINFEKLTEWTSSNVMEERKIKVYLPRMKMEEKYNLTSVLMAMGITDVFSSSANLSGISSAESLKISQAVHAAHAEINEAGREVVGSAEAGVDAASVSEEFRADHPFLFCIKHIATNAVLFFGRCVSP
Sequence of bovine transferrin (Q29443 20-704 limits assumed): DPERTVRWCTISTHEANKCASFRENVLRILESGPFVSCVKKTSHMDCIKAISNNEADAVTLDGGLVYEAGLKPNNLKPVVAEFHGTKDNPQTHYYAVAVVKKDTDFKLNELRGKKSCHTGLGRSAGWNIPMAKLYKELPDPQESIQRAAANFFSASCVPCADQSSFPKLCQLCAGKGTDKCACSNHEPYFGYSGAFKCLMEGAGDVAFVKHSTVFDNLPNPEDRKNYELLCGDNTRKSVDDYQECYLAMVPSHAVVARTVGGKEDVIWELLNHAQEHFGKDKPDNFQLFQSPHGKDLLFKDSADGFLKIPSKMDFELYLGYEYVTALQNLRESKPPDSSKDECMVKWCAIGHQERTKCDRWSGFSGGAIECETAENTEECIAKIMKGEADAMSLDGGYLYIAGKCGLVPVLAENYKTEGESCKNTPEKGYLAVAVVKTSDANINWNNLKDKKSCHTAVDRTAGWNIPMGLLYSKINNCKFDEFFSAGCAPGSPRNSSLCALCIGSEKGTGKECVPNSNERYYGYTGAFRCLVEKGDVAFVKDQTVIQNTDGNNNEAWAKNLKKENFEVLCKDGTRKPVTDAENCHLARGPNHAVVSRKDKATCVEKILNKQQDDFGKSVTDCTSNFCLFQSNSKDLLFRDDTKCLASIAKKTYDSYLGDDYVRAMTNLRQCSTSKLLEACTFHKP
Sequence of RNase B (P61823 27-150): as the sequence (P61823 27-150) above
Method for Amyloglycosidase: as §1, §2
Method for Antitrypsin: as §1, §2
Method for Cytochrome C: as §1, §2
Method for Fibrinogen (b): as §1, §2
Method for GFP: as §1, §2
Method for Myoglobin: as §1, §2
Method for Ovalbumin: as §1, §2
Method for Pepsinogen: as §1, §2
Method for Protein A: as §1, §2
Method for RNase A: as §1, §2
Method for RNase B: as §1, §2
Method for Serum albumin (h): as §1, §2
Method for Trypsin inhibitor: as §1, §2
Method for Trypsinogen: as §1, §2
Method for anti-human Fab (Dianova): as §1, §2
Method for anti-human Fc: as §1, §2
Method for bovine transferrin: as §1, §2

B1: MAB #2 (antibody, human IgG1, lambda)
heavy: EVQLVESGGGLVKPGGSLRLSCAASGFTFSSYAMHWVRQAPGKGLEWVGRIKSVAQGGTTDYAAHVKGRFTISRDDSKNTLYLQMNSLKTEDTAVYYCARVSHSTFDVWGQGTLVTVSSASTKGPSVFPLAPSSKSTSGGTAALGCLVKDYFPEPVTVSWNSGALTSGVHTFPAVLQSSGLYSLSSVVTVPSSSLGTQTYICNVNHKPSNTKVDKRVEPKSCDKTHTCPPCPAPEAEGAPSVFLFPPKPKDTLMISRTPEVTCVVVDVSHEDPEVKFNWYVDGVEVHNAKTKPREEQYNSTYRVVSVLTVLHQDWLNGKEYKCKVSNKALPSSIEKTISKAKGQPREPQVYTLPPSREEMTKNQVSLTCLVKGFYPSDIAVEWESNGQPENNYKTTPPVLDSDGSFFLYSKLTVDKSRWQQGNVFSCSVMHEALHNHYTQKSLSLSPGK
light: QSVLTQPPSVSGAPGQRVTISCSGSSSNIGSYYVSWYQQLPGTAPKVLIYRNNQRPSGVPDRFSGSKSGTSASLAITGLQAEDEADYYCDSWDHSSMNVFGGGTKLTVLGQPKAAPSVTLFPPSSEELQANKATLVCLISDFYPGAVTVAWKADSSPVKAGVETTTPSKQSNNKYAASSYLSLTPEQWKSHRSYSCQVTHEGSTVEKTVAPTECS
notes: lambda 1 light chain
For the molecule B1, the “fold weaker binding than to the human C5aR peptide” value in assay [1] was approximately 1000 fold. Further, the “binding ratio (signal / signal of MOR03207)” value in the assay with Protein A came to 1; with Fc (h), 3; with Pepsinogen it was 5; with Amyloglycosidase, 2; with Trypsin inhibitor, 7; with Cytochrome C, 2. Besides, the “binding ratio (signal / signal of MOR03207)” value in the assay with Myoglobin stood at 2; in the assay with Ovalbumin, 4; with Trypsinogen, 2; with RNase B it was 2; in the assay with Serum albumin (h), 2; with RNase A it was 6. Besides, the “binding ratio (signal / signal of MOR03207)” value with anti-human Fab (Dianova) was found to be 1; with anti-human Fc it was 1; with Fibrinogen (b), 2; in the assay with Antitrypsin, 2; in [2] it was 2; in assay [3] it was 2. Besides, the figures for the “binding ratio (signal / signal of MOR03207)” value with GFP and with bovine transferrin were 2 and 9, respectively. In addition, the Kd is 130 nM in assay [4] and 300 nM in assay [5].

B2: MAB #1 (antibody, human IgG1, lambda)
heavy: B1 heavy with V54K, H103F
light: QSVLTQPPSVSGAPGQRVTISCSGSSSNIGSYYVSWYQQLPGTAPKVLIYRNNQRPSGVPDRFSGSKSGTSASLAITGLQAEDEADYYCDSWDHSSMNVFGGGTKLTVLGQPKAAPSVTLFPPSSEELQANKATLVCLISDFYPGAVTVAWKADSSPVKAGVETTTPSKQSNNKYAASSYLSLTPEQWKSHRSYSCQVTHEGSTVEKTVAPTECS
notes: lambda 1 light chain, VH3-15 framework
As to B2, the “fold weaker binding than to the human C5aR peptide” value in assay [1] is approximately 1000 fold. Moreover, the “binding ratio (signal / signal of MOR03207)” value with Protein A was 1; in the assay with Fc (h), 2; with Pepsinogen, 4; with Amyloglycosidase, 3; with Trypsin inhibitor, 5; with Cytochrome C, 2. The “binding ratio (signal / signal of MOR03207)” value with Myoglobin was determined as 2; with Ovalbumin, 2; with Trypsinogen, 2; with RNase B it was 2; with Serum albumin (h), 2; with RNase A, 4. The “binding ratio (signal / signal of MOR03207)” value in the assay with anti-human Fab (Dianova) is 1; with anti-human Fc, 1; in the assay with Fibrinogen (b) it was 2; in the assay with Antitrypsin it was 2; in assay [2] it was 2; in assay [3], 2. The figures for the “binding ratio (signal / signal of MOR03207)” value in the assay with GFP and with bovine transferrin were 2 and 19, respectively. Besides, the Kd in assay [4] was 39 nM; in [5], 110 nM.
